Reference: patent publication US20230272390A1, “COMPOSITIONS AND METHODS FOR HEMOGLOBIN PRODUCTION” (THE CHILDREN'S HOSPITAL OF PHILADELPHIA, priority 2020, published 2023)

Key:
[1] = target: T1, ZNF410 ZF1-5 (GST fusion) (Homo sapiens, UniProt Q86VK4 SEQ:217-366); test: FP; no measurable binding up to 2.5 uM; shares 7/17 bp with consensus; settings: tags: GST N-terminal (pGEX-6P-1, pXC2180); label: FAM 5' (top strand)
T1 sequence: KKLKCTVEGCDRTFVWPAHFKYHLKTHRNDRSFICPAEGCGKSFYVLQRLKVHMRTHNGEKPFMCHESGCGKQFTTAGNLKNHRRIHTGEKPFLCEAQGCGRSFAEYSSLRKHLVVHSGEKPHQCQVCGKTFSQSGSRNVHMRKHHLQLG
Method: To further gain insight into the molecular basis of how the ZNF410 tandem ZF domain recognizes its targeting DNA sequence, crystallization of the ZNF410-DNA complex was performed. The binding affinity of the ZNF410 ZF domain (ZF1-5) with the consensus motif was quantified by fluorescence polarization using purified GST fusion protein (Patel, et al. (2016) Methods Enzymol., 573:387-401). […] Next, the crystal structure of the ZF domain in complex with the same 17-bp oligo (5′-3′: […] (SEQ ID NO: 19); 3′-5′: […] (SEQ ID NO: 20)) containing the consensus motif was determined. The structure of the protein-DNA complex was solved by the single-wavelength anomalous diffraction (SAD) method (Hendrickson, et al. (1990) EMBO J., 9:1665-1672) at 2.75 Å resolution. As in conventional C2H2 ZF proteins (Wolfe, et al. (2000) Annu. Rev. Biophys. Biomol. Struct., 29:183-212), each of five fingers of ZNF410 comprises two strands and a helix, with two histidine residues in the helix together with one cysteine in each strand coordinating a zinc ion, forming a characteristic tetrahedral C2-Zn—H2 structural unit that confers rigidity to the fingers. When bound to DNA, ZF1-5 occupies the DNA major groove, with their α-helices toward DNA and the strands and the C2-Zn—H2 units facing outside (FIGS. 6B and C). […]

[2] = test system: motifs from the CHD4 promoter and enhancer sites; test: EMSA with COS-7 nuclear extracts and radiolabeled probes; type: binding, human; settings: COS nuclear extracts, FLAG-tagged constructs, radiolabeled CHD4 motif probes
Method: Nuclear extracts were prepared from COS-7 cells transiently transfected with ZNF410 full-length and ZNF410 ZF1-5 plasmids. FuGENE® 6 (Promega) was used to transfect 5 μg of vector into 100 mm plates of COS-7 cells. A pcDNA3 empty vector was used as control. Cells were harvested 48 hours after transfection and nuclear extracts prepared (Andrews, et al. (1991) Nucleic Acids Res., 19:2499).
EMSAs were performed (Crossley, et al. (1996) Mol. Cell Biol., 16:1695-1705). The sense oligonucleotide was labelled with [γ-^32P]-adenosine triphosphate (Perkin Elmer) and boiled at 100° C. for 1 minute before addition of the antisense oligonucleotide and annealing of probe via slow cooling from 100° C. to room temperature. Probes were purified using Quick Spin Columns for radio-labelled DNA Purification (Roche). Nuclear extracts were harvested from COS-7 cells and samples and loaded on a 6% native polyacrylamide gel in TBE buffer (45 mM Tris, 45 mM boric acid, 1 mM EDTA). A ‘COS empty’ control lane was included to show binding of any background endogenous protein to the probe. […] Gels were run at 250 V for 1 hour, 45 minutes at 4° C. then dried under vacuum. […]
ZNF410 contains five tandem C2H2-type zinc fingers (ZFs) potentially involved in DNA binding (FIG. 5A). […] Direct DNA binding by full length (FL) ZNF410 to sequences found at the CHD4 gene was assessed by electrophoretic mobility shift assays (EMSAs). […]

endogenous ZNF410 = target: T2, endogenous ZNF410 (Homo sapiens, UniProt Q86VK4); test: RT-qPCR in HUDEP-2 cells overexpressing HA-tagged ZNF410 constructs; type: cell-based
T2 construct: endogenous in cells; host or cells: HUDEP-2 (HUDEP-2-Cas9) cells, differentiated
T2 sequence (Q86VK4 1-478): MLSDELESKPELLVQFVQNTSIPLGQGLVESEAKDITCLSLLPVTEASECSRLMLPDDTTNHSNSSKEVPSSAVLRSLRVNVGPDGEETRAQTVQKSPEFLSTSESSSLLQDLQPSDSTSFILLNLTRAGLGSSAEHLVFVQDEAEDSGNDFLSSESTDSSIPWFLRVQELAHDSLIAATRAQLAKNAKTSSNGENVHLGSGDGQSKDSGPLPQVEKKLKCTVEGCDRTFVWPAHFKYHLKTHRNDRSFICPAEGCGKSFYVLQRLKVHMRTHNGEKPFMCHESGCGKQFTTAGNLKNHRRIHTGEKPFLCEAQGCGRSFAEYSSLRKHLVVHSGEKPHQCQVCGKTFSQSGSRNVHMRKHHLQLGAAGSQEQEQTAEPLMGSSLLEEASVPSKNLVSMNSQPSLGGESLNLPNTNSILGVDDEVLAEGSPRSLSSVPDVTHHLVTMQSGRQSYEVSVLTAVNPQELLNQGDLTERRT
Method: HUDEP-2 cells were cultured and differentiated as described (Kurita, et al. (2013) PLoS One 8:e59890). Briefly, StemSpan™ Serum-Free Expansion Medium (SFEM) supplemented with 50 ng/ml human stem cell factor (SCF), 10 μM dexamethasone, 1 μg/ml doxycycline, 3 IU/ml erythropoietin and 1% penicillin/streptomycin was utilized for routine cell maintenance. Cell density was kept at 0.1-1×10^6/ml. HUDEP-2 cells were differentiated for 6-7 days in IMDM supplemented with 50 ng/ml human SCF, 3 IU/ml erythropoietin, 2.5% fetal bovine serum, 250 μg/ml holo-transferrin, 10 ng/ml heparin, 10 μg/ml insulin, 1 μg/ml doxycycline and 1% penicillin/streptomycin.
SgRNAs were cloned into a lentiviral U6-sgRNA-EFS-GFP/mCherry expression vector (LRG, Addgene: #65656) by BsmBI digestion. The ZNF410 cDNA (clone ID: OHu10535), CHD4 cDNA (clone ID: OHu28780) were purchased from GenScript and were sub-cloned into a lentiviral vector pSDM101-IRES-GFP. ZNF410 variants were sub-cloned into pSDM101-IRES-GFP vector. The N-terminal HA tag was introduced by PCR. For EMSA, the ZNF410 full length or different ZF versions were sub-cloned into mammalian expression vector pcDNA3.
Lentivirus was produced as described (Grevet, et al. (2018) Science 361:285-290). Briefly, 10-20 μg of expression vectors, 5-10 μg of pVSVG (pMD2.G) and 7.5-15 μg of psPAX2 package plasmids, and 80 μl of 1 mg/ml polyethylenimine (PEI) were mixed, incubated for 15-20 minutes, and added to HEK293T cells grown in 10 cm plates to above 90% confluence. Media were replaced 6-8 hours post transfection, virus was collected 24 hours and 48 hours post-transfection and pooled. For infection, virus-containing supernatant was mixed with the indicated cell lines with 8 μg/ml polybrene and 10 mM HEPES, and then spun at 2250 rpm for 1.5 hours at room temperature. Infected HUDEP-2 cells were selected for mCherry+ or GFP+ cell sorting at 48 hours post-infection.
Total RNA was purified using the RNeasy® Plus Mini Kit (Qiagen), including an on-column DNAse treatment using RNase-free DNase set (Qiagen) to remove genomic DNA. Reverse transcription was accomplished using iScript™ Supermix (Bio-Rad). qPCR reactions were prepared with Power SYBR® Green (ThermoFisher Scientific). Quantification was performed using the ΔΔCT method.
Overexpression of ZF1-5 but not ZF2-4 should compete with endogenous ZNF410 for chromatin binding, thus acting in a dominant-negative manner. To test this hypothesis, a construct containing HA-tagged ZF1-5 or ZF2-4 driven by the EF1α promoter was introduced via lentiviral infection into HUDEP-2 cells. As control, the expression of full-length HA-tagged ZNF410 was forced. […] Moreover, full-length HA-ZNF410 when overexpressed to similar levels to HA-ZF1-5 also produced similar binding patterns (FIG. 4A). […] Thus, the ZF region is sufficient for chromatin occupancy but insufficient for CHD4 gene activation. […] Finally, the impact of ZNF410 expression on γ-globin levels was also measured.

[3] = target: T3, ZNF410 ZF1-5 (GST removed) (Homo sapiens, UniProt Q86VK4 SEQ:217-366); test: structure; crystal structure 2.75 A, PDB 6WMI; settings: tags: none (GST cleaved with PreScission protease); label: FAM 5' (top strand) in FP
T3 sequence: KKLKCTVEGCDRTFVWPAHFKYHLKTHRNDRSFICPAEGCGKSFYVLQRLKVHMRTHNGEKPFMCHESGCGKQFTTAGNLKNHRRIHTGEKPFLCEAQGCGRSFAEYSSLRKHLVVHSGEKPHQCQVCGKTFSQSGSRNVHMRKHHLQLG

B1: negative control oligo (dsDNA)
DNA 1: TCCACTGCCAGGACCTTT
DNA 2: AAAAGGTCCTGGCAGTGG
- binding result [1]: no binding

B2: ZNF410 FL: full-length tagged human ZNF410 (478 amino acids) overexpressed as control (protein)
chain: MLSDELESKPELLVQFVQNTSIPLGQGLVESEAKDITCLSLLPVTEASECSRLMLPDDTTNHSNSSKEVPSSAVLRSLRVNVGPDGEETRAQTVQKSPEFLSTSESSSLLQDLQPSDSTSFILLNLTRAGLGSSAEHLVFVQDEAEDSGNDFLSSESTDSSIPWFLRVQELAHDSLIAATRAQLAKNAKTSSNGENVHLGSGDGQSKDSGPLPQVEKKLKCTVEGCDRTFVWPAHFKYHLKTHRNDRSFICPAEGCGKSFYVLQRLKVHMRTHNGEKPFMCHESGCGKQFTTAGNLKNHRRIHTGEKPFLCEAQGCGRSFAEYSSLRKHLVVHSGEKPHQCQVCGKTFSQSGSRNVHMRKHHLQLGAAGSQEQEQTAEPLMGSSLLEEASVPSKNLVSMNSQPSLGGESLNLPNTNSILGVDDEVLAEGSPRSLSSVPDVTHHLVTMQSGRQSYEVSVLTAVNPQELLNQGDLTERRT
modifications: left off: small tags and cut ends
notes: full-length tagged human ZNF410 (478 amino acids) overexpressed as control
- DNA binding in EMSA [2]: comparable binding to each of the four DNA probes
- effect on CHD4 expression (endogenous ZNF410; overexpression in HUDEP-2 cells): increased
- effect on γ-globin mRNA levels (endogenous ZNF410; overexpression in differentiated HUDEP-2 cells): slight decrease

B3: ZNF410 consensus oligo 17 bp (dsDNA)
DNA 1: CACATCCCATAATAATG
DNA 2: CATTATTATGGGATGTG
- binding result [3]: binds
